Patent US20230416709

Experiments:
Experiment in all cases: cell_activity
[1] = system: GFP_PPR(L)-FokI M50 (Flavobacterium okeanokoites (FokI domain)); details: Fn reporter HEK293T, paired with GFP_PPR(R)
[2] = system: B2M_PPR(L)-FokI M50 (Flavobacterium okeanokoites (FokI domain)); details: Fn reporter HEK293T, paired with B2M_PPR(R)
[3] = system: B2M_TALEN(L)-FokI M48 (Flavobacterium okeanokoites (FokI domain)); details: SSA reporter HEK293T, pair; value in figure only
[4] = system: B2M_TALEN(L)-FokI M47 (Flavobacterium okeanokoites (FokI domain)); details: SSA reporter HEK293T, pair; value in figure only
[5] = system: B2M_TALEN(L)-FokI M49 (Flavobacterium okeanokoites (FokI domain)); details: SSA reporter HEK293T, pair; value in figure only
[6] = system: B2M_TALEN(L)-FokI M50 (Flavobacterium okeanokoites (FokI domain)); details: SSA reporter HEK293T, pair; value in figure only
[7] = system: B2M_TALEN(R)-FokI M48 (Flavobacterium okeanokoites (FokI domain)); details: SSA reporter HEK293T, pair; value in figure only
[8] = system: B2M_TALEN(R)-FokI M50 (Flavobacterium okeanokoites (FokI domain)); details: SSA reporter HEK293T, pair; value in figure only
[9] = system: B2M_TALEN(R)-FokI M47 (Flavobacterium okeanokoites (FokI domain)); details: SSA reporter HEK293T, pair; value in figure only
[10] = system: B2M_TALEN(R)-FokI M49 (Flavobacterium okeanokoites (FokI domain)); details: SSA reporter HEK293T, pair; value in figure only
[11] = system: GFP_TALEN(L)-FokI M49 (Flavobacterium okeanokoites (FokI domain)); details: SSA reporter HEK293T, pair; value in figure only
[12] = system: GFP_TALEN(L)-FokI M47 (Flavobacterium okeanokoites (FokI domain)); details: SSA reporter HEK293T, pair; value in figure only
[13] = system: GFP_TALEN(L)-FokI M50 (Flavobacterium okeanokoites (FokI domain)); details: SSA reporter HEK293T, pair; value in figure only
[14] = system: GFP_TALEN(L)-FokI M48 (Flavobacterium okeanokoites (FokI domain)); details: SSA reporter HEK293T, pair; value in figure only
[15] = system: GFP_TALEN(R)-FokI M50 (Flavobacterium okeanokoites (FokI domain)); details: SSA reporter HEK293T, pair; value in figure only
[16] = system: GFP_TALEN(R)-FokI M49 (Flavobacterium okeanokoites (FokI domain)); details: SSA reporter HEK293T, pair; value in figure only
[17] = system: GFP_TALEN(R)-FokI M47 (Flavobacterium okeanokoites (FokI domain)); details: SSA reporter HEK293T, pair; value in figure only
[18] = system: GFP_TALEN(R)-FokI M48 (Flavobacterium okeanokoites (FokI domain)); details: SSA reporter HEK293T, pair; value in figure only
[19] = system: GFP_PPR(R)-FokI M50 (Flavobacterium okeanokoites (FokI domain)); details: Fn reporter HEK293T, paired with GFP_PPR(L)
[20] = system: B2M_PPR(R)-FokI M50 (Flavobacterium okeanokoites (FokI domain)); details: Fn reporter HEK293T, paired with B2M_PPR(L)
[21] = system: TALEN-A-FokI M50(G473) (MBP fusion) R473G (Flavobacterium okeanokoites (FokI domain)); details: E. coli B2P; M50 24% in same experiment
[22] = system: TALEN-A-FokI wild-type (MBP fusion) (Flavobacterium okeanokoites (FokI domain)); details: E. coli B2P, 0.1 mM IPTG 15 min 37 C
[23] = system: TALEN-A-FokI M47 (MBP fusion) (Flavobacterium okeanokoites (FokI domain)); details: E. coli B2P, 0.1 mM IPTG 15 min 37 C
[24] = system: TALEN-A-FokI M49 (MBP fusion) (Flavobacterium okeanokoites (FokI domain)); details: E. coli B2P, 0.1 mM IPTG 15 min 37 C
[25] = system: TALEN-A-FokI M48 (MBP fusion) (Flavobacterium okeanokoites (FokI domain)); details: E. coli B2P, 0.1 mM IPTG 15 min 37 C
[26] = system: TALEN-A-FokI M50 (MBP fusion) (Flavobacterium okeanokoites (FokI domain)); details: E. coli B2P, 0.1 mM IPTG 15 min 37 C; 24% in second experiment (p75)

## ACGACTTCTTCAAGT (double strand) [GFP_PPR(L) half-site]
[1]
  activity (fold vs WT FokI): 1.5

## AATGGAAAGTCAAA (double strand) [B2M_PPR(L) half-site]
[2]
  activity (fold vs WT FokI): 2.2

## CCAAAGATTCAGGT (double strand) [B2M_TALEN(L) half-site]
[3]
  activity (fold vs WT FokI): > 1
[4]
  activity (fold vs WT FokI): > 1
[5]
  activity (fold vs WT FokI): > 1
[6]
  activity (fold vs WT FokI): > 1

## GACTTTCCATTCTC (double strand) [B2M_TALEN(R) half-site]
[7]
  activity (fold vs WT FokI): > 1
[8]
  activity (fold vs WT FokI): > 1
[9]
  activity (fold vs WT FokI): > 1
[10]
  activity (fold vs WT FokI): > 1

## CAGCGTGTCCGGCGA (double strand) [GFP_TALEN(L) half-site]
[11]
  activity (fold vs WT FokI): > 1
[12]
  activity (fold vs WT FokI): > 1
[13]
  activity (fold vs WT FokI): > 1
[14]
  activity (fold vs WT FokI): > 1

## TTGCCGTAGGTGGCA (double strand) [GFP_TALEN(R) half-site]
[15]
  activity (fold vs WT FokI): > 1
[16]
  activity (fold vs WT FokI): > 1
[17]
  activity (fold vs WT FokI): > 1
[18]
  activity (fold vs WT FokI): > 1

## CCTGGACGTAGCCTT (double strand) [GFP_PPR(R) half-site]
[19]
  activity (fold vs WT FokI): 1.5

## AGCAATTCAGGAAA (double strand) [B2M_PPR(R) half-site]
[20]
  activity (fold vs WT FokI): 2.2

## AGCCGAAATCATCGCAGCCGCTGCCGCGAGCTCCTGCGATGATTTCGGCT (double strand) [TALEN-A target site (inverted repeat)]
[21]
  activity: < 0.05 % survival
[22]
  activity: 0.0001 % survival
[23]
  activity: 29 % survival
[24]
  activity: 45 % survival
[25]
  activity: 37 % survival
[26]
  activity: 28 % survival
